Assay results taken from patent US20240132578A1.

What was measured:
[1] = target: HIV-1 Env of isolate 92UG037 (pseudovirus) (HIV-1); assay: cell-based or functional assay
[2] = target: HIV-1 Env of pseudovirus isolate MGRM-Chronic-B-004 (clade B) (HIV-1); assay: cell-based or functional assay
[3] = target: HIV-1 Env of isolate MGRM-AE-006 (pseudovirus) (HIV-1); assay: cell-based or functional assay
[4] = target: HIV-1 92RW020 Env (HIV-1); assay: cell-based or functional assay
[5] = target: HIV-1 Env of isolate 93UG077 (pseudovirus) (HIV-1); assay: cell-based or functional assay
[6] = target: HIV-1 Env of pseudovirus isolate APV-13 (clade B) (HIV-1); assay: cell-based or functional assay
[7] = target: HIV-1 Env of isolate 92WR024 (pseudovirus) (HIV-1); assay: cell-based or functional assay
[8] = target: HIV-1 Env of isolate 93WR029 (pseudovirus) (HIV-1); assay: cell-based or functional assay
[9] = target: HIV-1 Env of isolate 92UG031 (pseudovirus) (HIV-1); assay: cell-based or functional assay
[10] = target: HIV-1 Env of isolate 94UG103 (pseudovirus) (HIV-1); assay: cell-based or functional assay
[11] = target: HIV-1 Env of isolate MG RM-A-009 (pseudovirus) (HIV-1); assay: cell-based or functional assay
[12] = target: HIV-1 Env of isolate MGRM-AE-004 (pseudovirus) (HIV-1); assay: cell-based or functional assay
[13] = target: HIV-1 Env of isolate MGRM-AE-005 (pseudovirus) (HIV-1); assay: cell-based or functional assay
[14] = target: HIV-1 Env of isolate 92WR021 (pseudovirus) (HIV-1); assay: cell-based or functional assay
[15] = target: HIV-1 Env of isolate 92WR020 (pseudovirus) (HIV-1); assay: cell-based or functional assay
[16] = target: HIV-1 Env of isolate TRJ04551.58 (HIV-1); assay: cell-based or functional assay
[17] = target: HIV-1 Env of isolate PVO.4 (HIV-1); assay: cell-based or functional assay
[18] = target: HIV-1 Env of isolate 98IN022 (HIV-1); assay: cell-based or functional assay
[19] = target: HIV-1 Env of isolate 93IN905 (HIV-1); assay: cell-based or functional assay
[20] = target: HIV-1 MGRM-A-010 Env (HIV-1); assay: cell-based or functional assay
[21] = target: HIV-1 Env of isolate MGRM-AG-012 (pseudovirus) (HIV-1); assay: cell-based or functional assay
[22] = target: HIV-1 Env of isolate SC422661.8 (HIV-1); assay: cell-based or functional assay
[23] = target: HIV-1 Env of isolate TRO.11 (HIV-1); assay: cell-based or functional assay
[24] = target: HIV-1 Env of isolate VLGCB3 (HIV-1); assay: cell-based or functional assay
[25] = target: HIV-1 Env of isolate THR0.18 (HIV-1); assay: cell-based or functional assay
[26] = target: HIV-1 Env of isolate MGRM-Chronic-B-024 (HIV-1); assay: cell-based or functional assay
[27] = target: HIV-1 Env of isolate 97ZA012 (HIV-1); assay: cell-based or functional assay
[28] = target: HIV-1 Env of isolate MGRM-F1-018 (HIV-1); assay: cell-based or functional assay
[29] = target: HIV-1 Env of pseudovirus MGRM-F1-012 (clade F) (HIV-1); assay: cell-based or functional assay
[30] = target: HIV-1 Env of isolate 93MW959 (HIV-1); assay: cell-based or functional assay
[31] = target: HIV-1 Env of isolate MGRM-D-019 (clade D pseudovirus) (HIV-1); assay: cell-based or functional assay
[32] = target: HIV-1 Env of pseudovirus MGRM-G-025 (HIV-1); assay: cell-based or functional assay
[33] = target: HIV-1 Env of isolate SF162 (HIV-1) (UniProt P19550); assay: cell-based or functional assay
[34] = target: HIV-1 Env of isolate MGRM-F1-023 (pseudovirus) (HIV-1); assay: cell-based or functional assay
[35] = target: HIV-1 envelope glycoprotein (Env) of isolate 92TH021, subtype AE (HIV-1); assay: cell-based or functional assay
[36] = target: WT JR-FL gp120 (HIV-1 JR-FL); assay: ELISA, antigen-coated wells, mAb titrated; EC50 by nonlinear regression

4970_K22 (PGT-144) (antibody), sequence (VH): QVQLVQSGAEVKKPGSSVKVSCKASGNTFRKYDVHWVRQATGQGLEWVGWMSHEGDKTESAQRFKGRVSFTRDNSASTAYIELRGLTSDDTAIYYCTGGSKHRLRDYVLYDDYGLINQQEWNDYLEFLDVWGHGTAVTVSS
4970_K22 (PGT-144) (antibody), sequence (VL): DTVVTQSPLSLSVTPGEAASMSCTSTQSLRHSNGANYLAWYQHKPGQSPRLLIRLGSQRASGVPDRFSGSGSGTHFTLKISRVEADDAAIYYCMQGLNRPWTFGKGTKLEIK
4980_N08 (PGT-143) (antibody), sequence (VH): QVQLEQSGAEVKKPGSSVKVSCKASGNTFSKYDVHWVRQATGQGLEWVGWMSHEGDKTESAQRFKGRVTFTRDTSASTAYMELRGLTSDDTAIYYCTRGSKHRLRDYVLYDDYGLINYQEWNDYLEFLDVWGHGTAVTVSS
4980_N08 (PGT-143) (antibody), sequence (VL): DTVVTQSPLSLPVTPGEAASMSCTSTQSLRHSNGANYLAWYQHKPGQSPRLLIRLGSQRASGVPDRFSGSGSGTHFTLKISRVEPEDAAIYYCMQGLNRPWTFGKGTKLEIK

In the case of 4980_N08 (PGT-143) (antibody), the IC50 (µg/mL), single-round pseudovirus neutralization [1] is reported as 0.854 µg/mL, the IC50, pseudovirus neutralization [2] is reported as 0.395 µg/mL and the IC50 (µg/mL), single-round pseudovirus neutralization [3] is reported as > 50 µg/mL. For the same substance, the IC50, pseudovirus neutralization [4] was > 10 µg/mL, the IC50 (µg/mL), single-round pseudovirus neutralization [5] was > 50 µg/mL and the IC50, pseudovirus neutralization [6] was > 50 µg/mL. It also gave an IC50 (µg/mL), single-round pseudovirus neutralization [7] of 0.122 µg/mL, an IC50 (µg/mL), single-round pseudovirus neutralization [8] of 0.053 µg/mL and an IC50 (µg/mL), single-round pseudovirus neutralization [9] of 0.095 µg/mL. The IC50 (µg/mL), single-round pseudovirus neutralization [10] was > 50 µg/mL, the IC50 (µg/mL), single-round pseudovirus neutralization [11] was 0.05 µg/mL and the IC50 (µg/mL), single-round pseudovirus neutralization [12] was 0.002 µg/mL. The IC50 (µg/mL), single-round pseudovirus neutralization [13] was > 50 µg/mL, the IC50 (µg/mL), single-round pseudovirus neutralization [14] was > 50 µg/mL and the IC50 (µg/mL), single-round pseudovirus neutralization [15] was > 50 µg/mL.
In the case of 4970_K22 (PGT-144) (antibody), the IC50 (µg/mL), single-round pseudovirus neutralization [1] is reported as 8.24 µg/mL, the IC50, pseudovirus neutralization [2] is reported as 9.41 µg/mL and the IC50 (µg/mL), single-round pseudovirus neutralization [3] is reported as > 50 µg/mL. For the same substance, the IC50, pseudovirus neutralization [4] was > 10 µg/mL, the IC50 (µg/mL), single-round pseudovirus neutralization [5] was > 50 µg/mL and the IC50, pseudovirus neutralization [6] was > 50 µg/mL. The IC50 (µg/mL), single-round pseudovirus neutralization [7] was 16.3 µg/mL, the IC50 (µg/mL), single-round pseudovirus neutralization [8] was 4.39 µg/mL and the IC50 (µg/mL), single-round pseudovirus neutralization [9] was 2.17 µg/mL. The IC50 (µg/mL), single-round pseudovirus neutralization [10] was > 50 µg/mL, the IC50 (µg/mL), single-round pseudovirus neutralization [11] was 2.83 µg/mL and the IC50 (µg/mL), single-round pseudovirus neutralization [12] was 0.104 µg/mL. The IC50 (µg/mL), single-round pseudovirus neutralization [13] was > 50 µg/mL, the IC50 (µg/mL), single-round pseudovirus neutralization [14] was > 50 µg/mL and the IC50 (µg/mL), single-round pseudovirus neutralization [15] was > 50 µg/mL.
With 1496_C09 (PG9) (TCN-109) (antibody) the IC50 (µg/mL), pseudovirus neutralization [3] was 0.063 µg/mL, the IC50, pseudovirus neutralization [4] was 0.161 µg/mL and the IC50 (µg/mL), pseudovirus neutralization [16] was 0.858 µg/mL. For the same substance, the IC50 (µg/mL), pseudovirus neutralization [17] was 24.8 µg/mL, the IC50 (µg/mL), pseudovirus neutralization [18] was 0.003 µg/mL and the IC50 (µg/mL), pseudovirus neutralization [19] was 0.035 µg/mL. It also gave an IC50, pseudovirus neutralization [20] of 0.0375 µg/mL, an IC50 (µg/mL), pseudovirus neutralization [21] of 22.8 µg/mL and an IC50 (µg/mL), pseudovirus neutralization [22] of 1.48 µg/mL. The IC50 (µg/mL), pseudovirus neutralization [23] was 16.9 µg/mL, the IC50 (µg/mL), pseudovirus neutralization [24] was 0.022 µg/mL and the IC50 (µg/mL), pseudovirus neutralization [25] was 26.4 µg/mL. The IC50 (µg/mL), pseudovirus neutralization [26] was 0.222 µg/mL, the IC50 (µg/mL), pseudovirus neutralization [12] was 0.009 µg/mL and the IC50 (µg/mL), pseudovirus neutralization [27] was 3.4 µg/mL. For the same substance, the IC50 (µg/mL), pseudovirus neutralization [28] was 0.019 µg/mL, the IC50 [29] was 0.01 µg/mL and the IC50 (µg/mL), pseudovirus neutralization [30] was 0.054 µg/mL. It also gave an IC50, pseudovirus neutralization [31] of 0.03 µg/mL and an IC50 (µg/mL), pseudovirus neutralization [13] of 0.282 µg/mL.
With 2F5 (antibody) the IC50 (µg/ml), pseudovirus neutralization [32] was > 50 µg/mL, the IC50 (µg/ml), pseudovirus neutralization [33] was 2.52 µg/mL and the IC50 [29] was > 50 µg/mL. It also gave an IC50, pseudovirus neutralization [31] of 0.14 µg/mL.
With 5145_B14 (PGT-127) (antibody) the IC50 (µg/mL), pseudovirus neutralization [34] was 0.119 µg/mL, the IC50 (µg/mL), pseudovirus neutralization [3] was > 50 µg/mL and the IC50 (µg/mL), pseudovirus neutralization [21] was > 50 µg/mL. The IC50 (µg/mL), pseudovirus neutralization [12] was > 50 µg/mL, the IC50, pseudovirus neutralization [35] was > 50 µg/mL and the IC50 (µg/mL), pseudovirus neutralization [13] was > 50 µg/mL. The EC50 [36] was 0.1 µg/mL.
With 1495_C14 (PGC14) (antibody) the IC50 (µg/ml), pseudovirus neutralization [32] was > 50 µg/mL, the IC50 (µg/ml), pseudovirus neutralization [33] was < 0.0025 µg/mL and the IC50 [29] was > 50 µg/mL. For the same substance, the IC50, pseudovirus neutralization [31] was > 50 µg/mL.
Work on 5123_A06 (PGT-125) (antibody) yielded an IC50 (µg/mL), pseudovirus neutralization [34] of 0.12 µg/mL, an IC50 (µg/mL), pseudovirus neutralization [3] of 0.009 µg/mL and an IC50, pseudovirus neutralization [4] of 0.0028 µg/mL. The IC50, pseudovirus neutralization [20] was 0.0025 µg/mL, the IC50 (µg/mL), pseudovirus neutralization [21] was > 50 µg/mL and the IC50 (µg/mL), pseudovirus neutralization [12] was > 50 µg/mL. The IC50, pseudovirus neutralization [35] was 0.006 µg/mL, the IC50 (µg/mL), pseudovirus neutralization [13] was 0.01 µg/mL and the EC50 [36] was 0.2 µg/mL.
5141_B17 (PGT-126) (antibody) gave an IC50 (µg/mL), pseudovirus neutralization [34] of 0.009 µg/mL, an IC50 (µg/mL), pseudovirus neutralization [3] of 17.3 µg/mL and an IC50, pseudovirus neutralization [4] of 0.0046 µg/mL. The IC50, pseudovirus neutralization [20] was 0.0033 µg/mL, the IC50 (µg/mL), pseudovirus neutralization [21] was > 50 µg/mL and the IC50 (µg/mL), pseudovirus neutralization [12] was > 50 µg/mL. The IC50, pseudovirus neutralization [35] was 0.197 µg/mL, the IC50 (µg/mL), pseudovirus neutralization [13] was 0.324 µg/mL and the EC50 [36] was 0.1 µg/mL.
